Each block holds one binder with its values, some of them ahead of it.
What was measured:
mouse MET ECD [1] = biological target: T1, mouse MET ECD (mouse, UniProt P16056 25-931); test: SPR, MET ECD on chip, crude periplasmic Fab
T1 construct: range 1-931; recombinant ECD made by the applicants; the stated range begins at residue 1; also called mMET; mMET ECD
Experimental: (§1) Fab-expressing phages from the libraries described above were produced according to standard phage display protocols. For selection, phages were first adsorbed to immobilized recombinant human MET ECD, washed, and then eluted using trypsin. After two cycles of selection with human MET ECD, two other cycles were performed in the same fashion using mouse MET ECD. In parallel, we also selected phages alternating a human MET ECD cycle with a mouse MET ECD cycle, for a total of four cycles. Phages selected by the two approaches were pooled together and then used to infect TG1 E. coli. Individual colonies were isolated and secretion of Fabs was induced using IPTG (Fermentas). The Fab-containing periplasmic fraction of bacteria was collected and tested for its ability to bind human and mouse MET ECD by Surface Plasmon Resonance (SPR). Human or mouse MET ECD was immobilized on a CM-5 chip using amine coupling in sodium acetate buffer (GE Healthcare). The Fab-containing periplasmic extracts were loaded into a BIACORE 3000 apparatus (GE Healthcare) with a flow rate of 30 μl/min. The Fab off-rates (koff) were measured over a two minute period. Binding of Fabs to human and mouse MET was further characterized by ELISA using MET ECD in solid phase and periplasmic crude extract in solution.
(§2) TABLE 7 Fabs binding to both human MET (hMET) and mouse MET (mMET). Fabs are grouped in families based on their VH CDR3 sequence. Binding of Fabs to human and mouse MET ECD was determined by Surface Plasmon Resonance (SPR) and by ELISA. SPR values represent the koff (s⁻¹). ELISA values represent the Optical Density (OD) at 450 nm (AU, arbitrary units). Both SPR and ELISA were performed using crude periplasmic extracts. Fab concentration in the extract was not determined. Values are the mean of three independent measurements.

human MET ECD [2] = biological target: T2, human MET ECD (human, UniProt P08581 25-932); test: SPR, MET ECD on chip, crude periplasmic Fab
T2 construct: range 1-932; recombinant ECD made by the applicants; the stated range begins at residue 1, so it includes the signal peptide of the entry; also called hMET; hMET ECD
Experimental: as §1, §2

mouse MET ECD [3] = biological target: T1, mouse MET ECD; test: ELISA, MET ECD in solid phase, crude periplasmic Fab
Experimental: as §1, §2

human MET ECD [4] = biological target: T2, human MET ECD; test: as above
Experimental: as §1, §2

[5] = biological target: T3, native mouse MET on living cells (mouse, UniProt P16056 25-1379); test: cell-based or functional assay
[6] = biological target: T4, native human MET on living cells (human, UniProt P08581 25-1390); test: cell-based or functional assay
mouse MET ECD [7] = biological target: T1, mouse MET ECD; test: ELISA, MET ECD in solid phase, mAb 0-20 nM
Experimental: (§3) Production (by transient transfection of mammalian cells) and purification (by protein A affinity chromatography) of the resulting chimeric llama-human IgG1 molecules was outsourced to U-protein Express. Binding of chimeric mAbs to MET was determined by ELISA using hMET or mMET ECD in solid phase and increasing concentrations of antibodies (0-20 nM) in solution. […] Binding capacity (EMAX) varied from antibody to antibody, possibly due to partial epitope exposure in the immobilized antigen, but was similar in the human and mouse setting.

human MET ECD [8] = biological target: T2, human MET ECD; test: ELISA, MET ECD in solid phase, mAb 0-20 nM
Experimental: as §3

[9] = biological target: T3, native mouse MET on living cells; test: cell-based or functional assay; remark: listed apart in the source
[10] = biological target: T4, native human MET on living cells; test: cell-based or functional assay; remark: listed apart in the source
[11] = biological target: T3, native mouse MET on living cells; test: cell-based or functional assay; remark: listed apart in the source
[12] = biological target: T4, native human MET on living cells; test: cell-based or functional assay; remark: listed apart in the source
[13] = biological target: T5, human MET-Fc (R&D Systems) (human, UniProt P08581 25-932); test: competition ELISA, hMET-Fc in solid phase, competitor 0.3 nM biotinylated hHGF
T5 construct: extracellular domain; bought chimeric protein; also called hMET; not shown: Fc portion of human IgG1
Experimental: (§4) To investigate along this line, we tested the competition between mAbs and HGF by ELISA. Recombinant human and mouse HGF (R&D Systems) were biotinylated at the N-terminus using NHS-LC-biotin (Thermo Scientific). MET-Fc protein, either human or mouse (R&D Systems), was immobilized in solid phase and then exposed to 0.3 nM biotinylated HGF, either human or mouse, in the presence of increasing concentrations of antibodies (0-120 nM).
(§5) A MET-Fc chimeric protein (either human or mouse) was immobilized in solid phase and exposed to a fixed concentration of biotinylated HGF (either human or mouse), in the presence of increasing concentrations of antibodies. […] Antibody-HGF competition is expressed as IC₅₀ (the concentration that achieves 50% competition) and IMAX (the maximum % competition reached at saturation).

[14] = biological target: T4, native human MET on living cells; test: flow cytometry, A549 cells
Experimental: (§6) We also analysed whether chimeric anti-MET antibodies bound to native human and mouse MET in living cells. […] Antibody binding to cells was analysed by flow cytometry using phycoerythrin-conjugated anti-human IgG1 antibodies (eBioscience) and a CyAn ADP analyser (Beckman Coulter). As a positive control for human MET binding, we used a commercial mouse anti-human MET antibody (R&D Systems) and phycoerythrin-conjugated anti-mouse IgG1 antibodies (eBioscience).
(§7) As a positive control for mouse MET binding we used a commercial goat anti-mouse MET antibody (R&D Systems) and phycoerythrin-conjugated anti-goat IgG1 antibodies (eBioscience). […] Consistent with the data obtained in ELISA, maximal binding (EMAX) varied depending on antibody, but was similar in human and mouse cells.

[15] = biological target: T3, native mouse MET on living cells; test: cell-based or functional assay; remark: listed apart in the source
[16] = biological target: T4, native human MET on living cells; test: cell-based or functional assay; remark: listed apart in the source
[17] = biological target: T3, native mouse MET on living cells; test: flow cytometry, MLP29 cells
Experimental: as §6, §7

[18] = biological target: T6, mouse MET-Fc (R&D Systems) (mouse, UniProt P16056 25-929, limits assumed); test: competition ELISA, mMET-Fc in solid phase, competitor 0.3 nM biotinylated mHGF
T6 construct: bought chimeric protein; also called mMET; not shown: Fc part
Experimental: as §4, §5

T4 sequence (P08581 25-1390): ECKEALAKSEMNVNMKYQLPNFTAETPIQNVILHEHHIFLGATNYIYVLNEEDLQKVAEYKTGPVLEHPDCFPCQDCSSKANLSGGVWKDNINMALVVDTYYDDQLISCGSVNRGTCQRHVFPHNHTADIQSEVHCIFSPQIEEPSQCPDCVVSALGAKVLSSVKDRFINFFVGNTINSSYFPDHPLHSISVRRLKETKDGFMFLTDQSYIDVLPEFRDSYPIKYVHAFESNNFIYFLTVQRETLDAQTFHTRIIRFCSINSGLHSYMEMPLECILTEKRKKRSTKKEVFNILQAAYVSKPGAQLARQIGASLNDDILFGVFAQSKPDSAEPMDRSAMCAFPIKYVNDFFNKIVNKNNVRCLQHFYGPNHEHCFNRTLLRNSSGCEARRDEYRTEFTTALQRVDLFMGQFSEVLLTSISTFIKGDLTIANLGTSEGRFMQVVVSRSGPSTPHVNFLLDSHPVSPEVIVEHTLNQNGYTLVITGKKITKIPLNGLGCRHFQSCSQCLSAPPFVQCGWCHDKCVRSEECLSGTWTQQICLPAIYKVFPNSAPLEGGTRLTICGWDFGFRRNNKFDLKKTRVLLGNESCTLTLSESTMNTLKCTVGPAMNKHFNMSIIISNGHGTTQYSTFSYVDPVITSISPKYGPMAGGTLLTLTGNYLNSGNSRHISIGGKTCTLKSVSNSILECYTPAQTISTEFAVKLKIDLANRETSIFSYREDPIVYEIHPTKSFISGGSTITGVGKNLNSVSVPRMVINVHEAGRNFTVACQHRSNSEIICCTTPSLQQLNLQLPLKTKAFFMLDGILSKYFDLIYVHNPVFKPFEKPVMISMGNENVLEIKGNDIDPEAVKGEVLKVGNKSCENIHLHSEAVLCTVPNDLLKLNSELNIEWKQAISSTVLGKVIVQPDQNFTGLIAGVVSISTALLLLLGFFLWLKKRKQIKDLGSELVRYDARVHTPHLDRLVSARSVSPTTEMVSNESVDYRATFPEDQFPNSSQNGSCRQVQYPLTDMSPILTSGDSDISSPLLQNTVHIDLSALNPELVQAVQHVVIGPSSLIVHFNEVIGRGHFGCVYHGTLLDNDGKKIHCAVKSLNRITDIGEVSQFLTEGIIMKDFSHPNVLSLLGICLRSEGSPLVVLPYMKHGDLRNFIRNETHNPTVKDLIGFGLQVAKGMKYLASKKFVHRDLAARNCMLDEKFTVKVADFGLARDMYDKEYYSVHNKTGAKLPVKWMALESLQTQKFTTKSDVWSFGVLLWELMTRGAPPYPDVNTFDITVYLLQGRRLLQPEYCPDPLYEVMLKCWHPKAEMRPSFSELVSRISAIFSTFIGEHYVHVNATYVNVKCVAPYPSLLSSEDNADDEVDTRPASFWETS
T2 sequence (P08581 25-932 limits assumed, form in doubt): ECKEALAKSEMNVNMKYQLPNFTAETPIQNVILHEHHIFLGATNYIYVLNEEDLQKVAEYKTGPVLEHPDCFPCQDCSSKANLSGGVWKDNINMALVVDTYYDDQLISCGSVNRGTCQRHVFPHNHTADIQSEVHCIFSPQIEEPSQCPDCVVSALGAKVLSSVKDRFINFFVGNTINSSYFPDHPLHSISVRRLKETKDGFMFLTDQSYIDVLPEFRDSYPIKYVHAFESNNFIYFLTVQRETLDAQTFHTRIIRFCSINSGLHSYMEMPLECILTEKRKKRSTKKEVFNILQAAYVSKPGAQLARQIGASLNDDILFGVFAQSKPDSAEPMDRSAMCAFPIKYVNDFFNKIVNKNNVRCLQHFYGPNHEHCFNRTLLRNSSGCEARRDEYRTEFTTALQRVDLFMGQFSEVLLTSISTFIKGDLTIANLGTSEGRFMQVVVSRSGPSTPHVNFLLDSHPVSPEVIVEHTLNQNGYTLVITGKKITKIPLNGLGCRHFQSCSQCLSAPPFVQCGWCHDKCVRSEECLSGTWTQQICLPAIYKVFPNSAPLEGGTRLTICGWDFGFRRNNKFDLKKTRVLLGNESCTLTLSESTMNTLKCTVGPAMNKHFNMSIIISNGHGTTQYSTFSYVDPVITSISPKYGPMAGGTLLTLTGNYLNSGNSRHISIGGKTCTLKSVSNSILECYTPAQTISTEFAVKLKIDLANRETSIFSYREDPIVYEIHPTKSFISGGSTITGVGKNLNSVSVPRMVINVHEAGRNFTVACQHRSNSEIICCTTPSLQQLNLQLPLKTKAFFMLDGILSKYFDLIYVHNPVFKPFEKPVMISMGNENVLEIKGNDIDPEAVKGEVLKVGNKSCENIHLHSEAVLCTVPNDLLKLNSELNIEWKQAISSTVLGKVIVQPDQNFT
T5 sequence (P08581 25-932): as the sequence (P08581 25-932 limits assumed, form in doubt) above

koff (mouse MET ECD [1]): 0.00267 s⁻¹
koff (human MET ECD [2]): 0.00294 s⁻¹
OD450 (mouse MET ECD [3]): 3.07 AU
OD450 (human MET ECD [4]): 3.26 AU
B1: 71D6 Fab (Fab, V domains shown)
VH: ELQLVESGGGLVQPGGSLRLSCAASGFTFSSYGMSWVRQAPGKGLEWVSAINSYGGSTSYADSVKGRFTISRDNAKNTLYLQMNSLKPEDTAVYYCAKEVRADLSRYNDYESYDYWGQGTQVTVSS
VL: QPVLNQPSALSVTLGQTAKITCQGGSLGARYAHWYQQKPGQAPVLVIYDDDSRPSGIPERFSGSSSGGTATLTISGAQAEDEGDYYCQSADSSGSVFGGGTHLTVL
notes: llama Fab (VH-CH1 and lambda VL-CL) with MYC flag, crude periplasmic extract

EC50 (mouse MET ECD [7]): 0.116 nM
EMAX (OD450) (mouse MET ECD [7]): 0.896 AU
EC50 (human MET ECD [8]): 0.09 nM
EMAX (OD450) (human MET ECD [8]): 0.994 AU
phospho-MET ELISA EC50, MLP29 cells [9]: 0.41 nM
phospho-MET ELISA EMAX (% HGF activity), MLP29 cells [9]: 102%
phospho-MET ELISA EC50, A549 cells [10]: 0.52 nM
phospho-MET ELISA EMAX (% HGF activity), A549 cells [10]: 87.6%
branches per spheroid, MLP29 cells, 0.5 nM [11]: 17.3 branches
branches per spheroid, MLP29 cells, 2.5 nM [11]: 15.3 branches
branches per spheroid, MLP29 cells, 12.5 nM [11]: 22.3 branches
branches per spheroid, LOC cells, 0.5 nM [12]: 10.3 branches
branches per spheroid, LOC cells, 2.5 nM [12]: 17 branches
branches per spheroid, LOC cells, 12.5 nM [12]: 18.7 branches
IC50 [13]: 0.43 nM
IMAX [13]: 76.9%
EC50 [14]: 0.235 nM
EMAX [14]: 85.7 % relative to control
scatter score 0-4, MLP29, 0.001 nM [15]: 0 score
scatter score 0-4, MLP29, 0.004 nM [15]: 0 score
scatter score 0-4, MLP29, 0.012 nM [15]: 0 score
scatter score 0-4, MLP29, 0.037 nM [15]: 1 score
scatter score 0-4, MLP29, 0.111 nM [15]: 2 score
scatter score 0-4, MLP29, 0.333 nM [15]: 3 score
scatter score 0-4, MLP29, 1.000 nM [15]: 3 score
scatter score 0-4, MLP29, 3.000 nM [15]: 4 score
scatter score 0-4, MLP29, 9.000 nM [15]: 4 score
scatter score 0-4, HPAF-II, 0.001 nM [16]: 0 score
scatter score 0-4, HPAF-II, 0.004 nM [16]: 0 score
scatter score 0-4, HPAF-II, 0.012 nM [16]: 0 score
scatter score 0-4, HPAF-II, 0.037 nM [16]: 1 score
scatter score 0-4, HPAF-II, 0.111 nM [16]: 2 score
scatter score 0-4, HPAF-II, 0.333 nM [16]: 3 score
scatter score 0-4, HPAF-II, 1.000 nM [16]: 3 score
scatter score 0-4, HPAF-II, 3.000 nM [16]: 4 score
scatter score 0-4, HPAF-II, 9.000 nM [16]: 4 score
EC50 [17]: 0.208 nM
EMAX [17]: 73.8 % relative to control
IC50 [18]: 0.49 nM
IMAX [18]: 71.5%
B2: 74C8 chimeric llama-human IgG1 mAb (antibody, V domains shown)
VH: EVQLVESGGGLVQPGGSLRLSCAASGFTFRNYHMSWVRQVPGKGFEWISDINSAGGSTYYADSVKGRFTISRDNAKNTLYLEMNSLKPEDTALYYCARVNVWGVNYWGKGTLVSVSS
VL: QTVVTQEPSLSVSPGGTVTLTCGLSSGSVTTSNYPGWFQQTPGQAPRTLIYNTNSRHSGVPSRFSGSISGNKAALTITGAQPEDEADYYCSLYPGSYTNVFGGGTHLTVL
notes: llama VH on human IgG1 CH1-CH2-CH3, llama VL on human lambda CL
protection from staurosporine, viability EC50, MLP29 cells [5]: > 32 nM
protection from staurosporine, viability EMAX, MLP29 cells [5]: 37.5%
protection from staurosporine, viability EC50, MCF10A cells [6]: > 32 nM
protection from staurosporine, viability EMAX, MCF10A cells [6]: 41.7%

Source: US20210087281A1 (AGOMAB THERAPEUTICS, published 2021)
